Measured values from patent US20150203577A1 (Chugai, published 2015).
Changes are numbered by the printed parent chain. Numbers in names are those of the source.

T1: mouse FcγRII extracellular domain, C-terminal His tag (mouse, UniProt P08101 30-210)
T1 construct: also called mFcγRII; mFcgRII
T1 sequence: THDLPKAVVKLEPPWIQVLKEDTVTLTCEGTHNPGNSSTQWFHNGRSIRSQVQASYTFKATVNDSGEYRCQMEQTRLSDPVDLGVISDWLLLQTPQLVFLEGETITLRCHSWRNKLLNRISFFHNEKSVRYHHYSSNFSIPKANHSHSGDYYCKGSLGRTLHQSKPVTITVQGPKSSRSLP

T2: mouse FcγRIII extracellular domain, C-terminal His tag (mouse, UniProt P08508 31-215)
T2 construct: also called mFcγRIII; mFcgRIII
T2 chain: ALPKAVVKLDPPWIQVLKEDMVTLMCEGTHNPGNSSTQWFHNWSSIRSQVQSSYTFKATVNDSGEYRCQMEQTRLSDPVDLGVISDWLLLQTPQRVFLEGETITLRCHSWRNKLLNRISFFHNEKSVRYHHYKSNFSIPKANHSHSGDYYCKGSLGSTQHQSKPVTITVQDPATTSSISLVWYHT

B1: H237-MB543/MRAL-k0 (antibody, mouse IgG1, kappa)
heavy: QVQLQESGPGLVKPSETLSLTCAVSGHSISHDHAWSWVRQPPGEGLEWIGFISYSGITNYNPSLQGRVTISRDNSKNTLYLQMNSLRAEDTAVYYCARSLARTTAMDYWGEGTLVTVSSAKTTPPSVYPLAPGSAAQTNSMVTLGCLVKGYFPEPVTVTWNSGSLSSGVHTFPAVLQSDLYTLSSSVTVPSSTWPSETVTCNVAHPASSTKVDKKIVPRDCGCKPCICEPNEVEMVFIFPPKPKDVLTITLTPKVTCVVVDISKDDPEVQFSWFVDDVEVHTAQTQPREEQFNSTFRSVSELPIMHQDWLNGKEFKCRVDSAAFPAPIERTISKTKGRPKAPQVYTIPPPKEQMAKDKVSLTCMITDFFPEDITVEWQWNGQPAENYKNTQPIMDTDGSYFVYSKLNVQKSNWEAGNTFTCSVLHEGLHNHHTEKSLSHSPGK
light: not shown
notes: copies: 2 + 2
B2: H237-MB549/MRAL-k0 (antibody, mouse IgG1, kappa)
heavy: B1 heavy with S294L, A322D
light: not shown
notes: copies: 2 + 2
B3: H237-MB761/MRAL-k0 (antibody, mouse IgG1, kappa)
heavy: B1 heavy with M235L, S294M
light: not shown
notes: copies: 2 + 2
B4: H237-MB779/MRAL-k0 (antibody, mouse IgG1, kappa)
heavy: B1 heavy with M235L, D320N, R330K, S333W
light: not shown
notes: copies: 2 + 2
B5: H237-MB754/MRAL-k0 (antibody, mouse IgG1, kappa)
heavy: B1 heavy with M235L, R330K
light: not shown
notes: copies: 2 + 2
B6: H237-MB770/MRAL-k0 (antibody, mouse IgG1, kappa)
heavy: B1 heavy with M235L, D320N, P327F, R330K
light: not shown
notes: copies: 2 + 2
B7: H237-MB545/MRAL-k0 (antibody, mouse IgG1, kappa)
heavy: B1 heavy with S294L, A322D, R330K
light: not shown
notes: copies: 2 + 2
B8: H237-MB548/MRAL-k0 (antibody, mouse IgG1, kappa)
heavy: B1 heavy with A322D
light: not shown
notes: copies: 2 + 2
B9: H237-MB544/MRAL-k0 (antibody, mouse IgG1, kappa)
heavy: B1 heavy with D320N, A322D
light: not shown
notes: copies: 2 + 2
B10: H237-MB759/MRAL-k0 (antibody, mouse IgG1, kappa)
heavy: B1 heavy with M235L
light: not shown
notes: copies: 2 + 2
B11: H237-MB710/MRAL-k0 (antibody)
heavy: B1 heavy with N231A, M235Q, D320N, R330K
light: not shown
notes: T0025 prints T230E/V231P/P232N/S238E/S239Q for MB710; EU numbering; copies: 2 + 2
B12: H237-MB748/MRAL-k0 (antibody, mouse IgG1, kappa)
heavy: B1 heavy with M235L, S263A, D320N, R330K
light: not shown
notes: copies: 2 + 2
B13: H237-MB766/MRAL-k0 (antibody, mouse IgG1, kappa)
heavy: B1 heavy with M235L, D320M, R330K
light: not shown
notes: copies: 2 + 2
B14: H237-MB783/MRAL-k0 (antibody, mouse IgG1, kappa)
heavy: B1 heavy with M235L, Q291L, D320N, A322D, R330K
light: not shown
notes: copies: 2 + 2
B15: H237-MB771/MRAL-k0 (antibody, mouse IgG1, kappa)
heavy: B1 heavy with M235L, D320N, P327Y, R330K
light: not shown
notes: copies: 2 + 2
B16: H237-MB780/MRAL-k0 (antibody, mouse IgG1, kappa)
heavy: B1 heavy with M235L, D320N, A323G, R330K
light: not shown
notes: copies: 2 + 2
B17: H237-MB760/MRAL-k0 (antibody, mouse IgG1, kappa)
heavy: B1 heavy with M235L, S294L
light: not shown
notes: copies: 2 + 2
B18: H237-MB751/MRAL-k0 (antibody, mouse IgG1, kappa)
heavy: B1 heavy with M235L, D320N
light: not shown
notes: copies: 2 + 2
B19: H237-MB630/MRAL-k0 (antibody, mouse IgG1, kappa)
heavy: B1 heavy with M235L, D320N, R330K
light: not shown
notes: copies: 2 + 2
B20: H237-MB749/MRAL-k0 (antibody, mouse IgG1, kappa)
heavy: B1 heavy with M235L, Q291L, D320N, R330K
light: not shown
notes: copies: 2 + 2
B21: H237-MB547/MRAL-k0 (antibody, mouse IgG1, kappa)
heavy: B1 heavy with S294L, D320N, A322D
light: not shown
notes: copies: 2 + 2
B22: H237-MB773/MRAL-k0 (antibody, mouse IgG1, kappa)
heavy: B1 heavy with M235L, D320N, E329Y, R330K
light: not shown
notes: copies: 2 + 2
B23: H237-MB756/MRAL-k0 (antibody, mouse IgG1, kappa)
heavy: B1 heavy with M235L, S294L, D320N
light: not shown
notes: copies: 2 + 2
B24: H237-MB782/MRAL-k0 (antibody, mouse IgG1, kappa)
heavy: B1 heavy with M235L, Q291L, R330K
light: not shown
notes: copies: 2 + 2
B25: H237-MB776/MRAL-k0 (antibody, mouse IgG1, kappa)
heavy: B1 heavy with M235L, D320N, R330K, T331Y
light: not shown
notes: copies: 2 + 2

Experiments:
[1] = molecular target: T1, mouse FcγRII extracellular domain, …; experiment: SPR (Biacore T200), antibody captured on Protein L, mFcγR analyte
Method: (§1) Each altered antibody was analyzed for its interaction with each Fcγ receptor prepared above using Biacore T100 (GE Healthcare Japan Corp.), Biacore T200 (GE Healthcare Japan Corp.), Biacore A100, or Biacore 4000. The running buffer used was HBS-EP+ (GE Healthcare Japan Corp.). The assay temperature was set to 25° C. The sensor chips used were chips prepared by immobilizing Protein L (ACTIGEN or BioVision) onto Series S Sensor Chip CM5 (GE Healthcare Japan Corp.) or Series S Sensor Chip CM4 (GE Healthcare Japan Corp.) by the amine coupling method.
(§2) In order to calculate the KD value of each altered antibody for FcγR, kinetic analysis was conducted according to the following method: first, the antibody of interest was captured onto any of these chips and allowed to interact with mFcγR diluted with a running buffer. For the obtained sensorgram, the assay results were globally fit into the 1:1 Langmuir binding model using Biacore Evaluation Software to calculate an association rate constant ka (L/mol/s) and a dissociation rate constant kd (1/s). From these values, the dissociation constant KD (mol/L) was calculated.

[2] = molecular target: T2, mouse FcγRIII extracellular domain, …; experiment: as above
Method: as §1, §2

Binder	Kd [1] [nM]	relative mFcγRII-binding activity (mIgG1 = 1) [1]	Kd [2] [nM]	relative mFcγRIII-binding activity (mIgG1 = 1) [2]
B1	1.08	195 fold vs H237-mIgG1/MRAL-k0	126	2.2 fold vs H237-mIgG1/MRAL-k0
B2	1	210 fold vs H237-mIgG1/MRAL-k0	52.1	5.4 fold vs H237-mIgG1/MRAL-k0
B3	15.7	13.4 fold vs H237-mIgG1/MRAL-k0	1570	0.2 fold vs H237-mIgG1/MRAL-k0
B4	21	10 fold vs H237-mIgG1/MRAL-k0	1610	0.2 fold vs H237-mIgG1/MRAL-k0
B5	10	21 fold vs H237-mIgG1/MRAL-k0	1130	0.2 fold vs H237-mIgG1/MRAL-k0
B6	15.7	13.3 fold vs H237-mIgG1/MRAL-k0	1170	0.2 fold vs H237-mIgG1/MRAL-k0
B7	1.29	163 fold vs H237-mIgG1/MRAL-k0	106	2.7 fold vs H237-mIgG1/MRAL-k0
B8	0.589	357 fold vs H237-mIgG1/MRAL-k0	71.7	3.9 fold vs H237-mIgG1/MRAL-k0
B9	0.76	276 fold vs H237-mIgG1/MRAL-k0	87.2	3.2 fold vs H237-mIgG1/MRAL-k0
B10	6.21	33.8 fold vs H237-mIgG1/MRAL-k0	646	0.4 fold vs H237-mIgG1/MRAL-k0
B11	4.13	50.8 fold vs H237-mIgG1/MRAL-k0	232	1.2 fold vs H237-mIgG1/MRAL-k0
B12	17.9	11.7 fold vs H237-mIgG1/MRAL-k0	2060	0.1 fold vs H237-mIgG1/MRAL-k0
B13	15	14 fold vs H237-mIgG1/MRAL-k0	1060	0.3 fold vs H237-mIgG1/MRAL-k0
B14	6.85	30.6 fold vs H237-mIgG1/MRAL-k0	378	0.7 fold vs H237-mIgG1/MRAL-k0
B15	15.2	13.8 fold vs H237-mIgG1/MRAL-k0	1070	0.3 fold vs H237-mIgG1/MRAL-k0
B16	10.4	20.2 fold vs H237-mIgG1/MRAL-k0	716	0.4 fold vs H237-mIgG1/MRAL-k0
B17	14.9	14.1 fold vs H237-mIgG1/MRAL-k0	1020	0.3 fold vs H237-mIgG1/MRAL-k0
B18	8.25	25.4 fold vs H237-mIgG1/MRAL-k0	890	0.3 fold vs H237-mIgG1/MRAL-k0
B19	14.7	14.3 fold vs H237-mIgG1/MRAL-k0	1120	0.3 fold vs H237-mIgG1/MRAL-k0
B20	8.3	25.3 fold vs H237-mIgG1/MRAL-k0	740	0.4 fold vs H237-mIgG1/MRAL-k0
B21	1.23	170 fold vs H237-mIgG1/MRAL-k0	62.3	4.5 fold vs H237-mIgG1/MRAL-k0
B22	16.5	12.7 fold vs H237-mIgG1/MRAL-k0	1310	0.2 fold vs H237-mIgG1/MRAL-k0
B23	19.8	10.6 fold vs H237-mIgG1/MRAL-k0	1330	0.2 fold vs H237-mIgG1/MRAL-k0
B24	9.88	21.3 fold vs H237-mIgG1/MRAL-k0	567	0.5 fold vs H237-mIgG1/MRAL-k0
B25	18.6	11.3 fold vs H237-mIgG1/MRAL-k0	1430	0.2 fold vs H237-mIgG1/MRAL-k0
